Molecular target: LecB-biotin (Pseudomonas aeruginosa lectin LecB, biotinylated) (Pseudomonas aeruginosa) (UniProt Q9HYN5)
Assay: pull-down

β1-integrin (glycosylated, endogenous in MDCK cells) (receptor)
percent of total β1-integrin extracted by LecB-biotin: 75%

From publication doi:10.1101/2019.12.12.872739
